The record followed here is article PMC11749594, “Tracing TMEM106B fibril deposition in aging and Parkinson’s disease with dementia brains” (Life Medicine, 2024).

This data set deals with the molecule itself. The data set is described as follows: cryo-EM structure; fibrils extracted from the frontal cortex of case 1 of PDD, pretreated with pronase for 30 min; helical reconstruction at 3.5 Å.

B1: TMEM106B fibril (Type 1) extracted from the frontal cortex of case 1 of PDD (domain or fragment, human (endogenous in brain tissue), UniProt Q9NUM4 120-254, looked up)
chain: SIDVKYIGVKSAYVSYDVQKRTIYLNITNTLNITNNNYYSVEVENITAQVQFSKTVIGKARLNNITIIGPLDMKQIDYTVPTVIAEEMSYMYDFCTLISIKVHNIVLMMQVTVTTTYFGHSEQISQERYQYVDCG
modifications: four potentially glycosylated Asn residues
notes: Transmembrane protein 106B (TMEM106B), human, fibril core of residues 120-254 (luminal domain); Amyloid fibril with many stacked copies of the chain; the atomic model was built as three layers; Residues 120-254 are the ordered core seen by cryo-EM; also called Transmembrane protein 106B fibril; brain-extracted TMEM106B fibril; source: extracted from postmortem human brain (frontal lobe, case 1 of …)
In the case of B1, the binding result was “binds”.
